Data as given in the supplement of paper PMC7125110.
± gives the standard error. For some assays here: Fewer inactive variants are shown than the library holds.

B1: glmS ribozyme (parent)
chain: AUAAAAGCGCCAGAACUACAGAAAUGUAGUUGACGAGGAGGAGGUUUAUCGAAUUUUCGGCGGAUGCCUCCAAA

Assays:
Settings in all cases: with glucosamine-6-phosphate
glucosamine-6-phosphate [1] = variants of: B1; assay: kcat; higher = faster cleavage; RNA array
Procedure, shortened: (§1)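 Weighted Michaelis–Menten fits across concentrations supplied kcat and KM, based on kobs from one- or two-exponential decay fits to normalised per-tile medians. The data came from barcoded ribozyme variants transcribed in situ by E. coli RNA polymerase on sequenced MiSeq chips and tracked at 37 °C by a hybridised Cy3 probe. Glucosamine-6-phosphate (40 μM to 10 mM) in HEPES/KCl/Mg(OAc)2 buffer was flowed in.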

glucosamine-6-phosphate [2] = variants of: B1; assay: KM; higher = weaker cofactor use; RNA array
Procedure, shortened: as §1

glucosamine-6-phosphate [3] = variants of: B1; assay: self-cleavage kobs at 40 uM GlcN6P; higher = faster cleavage; RNA array
Procedure, shortened: as §1

glucosamine-6-phosphate [4] = variants of: B1; assay: self-cleavage kobs at 160 uM GlcN6P; higher = faster cleavage; RNA array
Procedure, shortened: as §1

glucosamine-6-phosphate [5] = variants of: B1; assay: self-cleavage kobs at 640 uM GlcN6P; higher = faster cleavage; RNA array
Procedure, shortened: as §1

glucosamine-6-phosphate [6] = variants of: B1; assay: self-cleavage kobs at 2500 uM GlcN6P; higher = faster cleavage; RNA array
Procedure, shortened: as §1

glucosamine-6-phosphate [7] = variants of: B1; assay: self-cleavage kobs at 10000 uM GlcN6P; higher = faster cleavage; RNA array
Procedure, shortened: as §1

Variant	kcat (glucosamine-6-phosphate [1]) [s⁻¹]	KM (glucosamine-6-phosphate [2]) [µM]	self-cleavage kobs at 40 uM GlcN6P (glucosamine-6-phosphate [3]) [s⁻¹]	self-cleavage kobs at 160 uM GlcN6P (glucosamine-6-phosphate [4]) [s⁻¹]	self-cleavage kobs at 640 uM GlcN6P (glucosamine-6-phosphate [5]) [s⁻¹]	self-cleavage kobs at 2500 uM GlcN6P (glucosamine-6-phosphate [6]) [s⁻¹]	self-cleavage kobs at 10000 uM GlcN6P (glucosamine-6-phosphate [7]) [s⁻¹]
U47C U55G	0.0038 ± 0.00044	1640 ± 260	9.2e-05 ± 7.2e-06	0.000341 ± 4.2e-05	0.0011 ± 0.00014	0.00161 ± 0.00035	0.00347 ± 0.00028
A14U U49G A53U U69G	6.87e-05 ± 2.3e-05			8.99e-05 ± 3.4e-05		7.58e-05 ± 2.1e-05	
A14G U56G	0.0818 ± 0.014	1560 ± 320	0.00201 ± 0.00033	0.0087 ± 0.0018	0.0223 ± 0.0035	0.0673 ± 0.027	0.0704 ± 0.02
U49A C61U	< 1e-05						
A53G G59A	0.000102 ± 1.3e-05	4360 ± 1300				3.91e-05 ± 1.5e-05	7e-05 ± 1.9e-05
A36G C70G	1.29e-05 ± 3e-06			< 1e-05			
U46A C71U	0.00396 ± 0.00074	2020 ± 580	8.79e-05 ± 1.3e-05	0.000232 ± 6.3e-05	0.000874 ± 0.00015	0.00353 ± 0.00069	0.00319 ± 0.00037
C34A G51U C67U	0.000275 ± 1.8e-05	2730 ± 390			4.9e-05 ± 2e-05	0.00014 ± 3.7e-05	0.000213 ± 4.5e-05
C8A C67A	< 1e-05			< 1e-05		< 1e-05	
C11U G13U	6.21e-05 ± 5.4e-06	1020 ± 420				4.88e-05 ± 9.5e-06	5.47e-05 ± 8.2e-06
U56C G60A	1.14e-05 ± 1.1e-07	1070 ± 61					
U31G C71U	0.0144 ± 0.0067		0.000277 ± 3.1e-05	0.000479 ± 8.2e-05	0.00235 ± 0.00045	0.00836 ± 0.0019	0.0107 ± 0.0016
A6U G59A C68U	1.04e-05 ± 3.6e-06						
G13C U30C A52G	1.64e-05 ± 4.9e-06						
A14G G41U	0.00179 ± 0.00049	206 ± 99	0.00033 ± 4.5e-05	0.000642 ± 0.00012	0.00124 ± 0.00021	0.00232 ± 0.00045	
C11U U31C	0.000563 ± 7.8e-05	1620 ± 460		2.97e-05 ± 1.5e-05	0.000179 ± 2.3e-05	0.000364 ± 5.9e-05	0.000465 ± 5.5e-05
G41U U55A	0.000121 ± 2e-05			5.55e-05 ± 1.3e-05	0.000132 ± 2e-05	0.000105 ± 3.7e-05	0.000105 ± 1.7e-05
U49G C70A	1.52e-05 ± 2.5e-06						
